The text below walks through data of PMC12044017, “CDK4/6-mediated phosphorylation of DUB3 promotes YAP1 stability and hepatocellular carcinoma progression” (Cell Death Discovery, 2025).

In the experiment the target is T1, His-DUB3 (UniProt Q6R6M4 1-530).
T1 construct: deubiquitinase DUB3 (USP17L2), cloned into pET30a; the methods name only GST-DUB3 WT and His-YAP1
T1 sequence (looked up): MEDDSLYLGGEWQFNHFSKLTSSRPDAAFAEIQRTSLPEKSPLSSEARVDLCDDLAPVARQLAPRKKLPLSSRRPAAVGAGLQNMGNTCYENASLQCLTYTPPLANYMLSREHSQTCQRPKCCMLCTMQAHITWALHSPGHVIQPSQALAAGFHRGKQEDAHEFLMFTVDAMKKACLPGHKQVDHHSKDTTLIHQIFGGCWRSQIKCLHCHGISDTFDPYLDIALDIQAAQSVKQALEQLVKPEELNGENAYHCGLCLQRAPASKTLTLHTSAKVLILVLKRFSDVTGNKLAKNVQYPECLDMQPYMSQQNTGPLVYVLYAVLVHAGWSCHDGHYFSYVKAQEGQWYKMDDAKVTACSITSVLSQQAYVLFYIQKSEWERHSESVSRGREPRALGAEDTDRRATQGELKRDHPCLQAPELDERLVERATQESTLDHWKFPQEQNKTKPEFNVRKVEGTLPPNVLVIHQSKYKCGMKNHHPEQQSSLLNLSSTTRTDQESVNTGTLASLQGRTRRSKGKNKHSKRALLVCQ
The experiment can be described thus: pull-down; GST-fusion protein on Pierce Glutathione agarose mixed with purified His-tagged protein at 4 °C for 2 hours; beads washed four times; western blot. Particulars: both partners purified. (Immunoblotting shows a protein as a band on a membrane.)

B1: GST-CDK4 (enzyme, UniProt P11802 1-303, looked up)
chain: MATSRYEPVAEIGVGAYGTVYKARDPHSGHFVALKSVRVPNGGGGGGGLPISTVREVALLRRLEAFEHPNVVRLMDVCATSRTDREIKVTLVFEHVDQDLRTYLDKAPPPGLPAETIKDLMRQFLRGLDFLHANCIVHRDLKPENILVTSGGTVKLADFGLARIYSYQMALTPVVVTLWYRAPEVLLQSTYATPVDMWSVGCIFAEMFRRKPLFCGNSEADQLGKIFDLIGLPPEDDWPRDVSLPRGAFPPRGPRPVQSVVPEMEESGAQLLLEMLTFNPHKRISAFRALQHSYLHKDEGNPE
notes: cyclin-dependent kinase 4 (CDK4); no cyclin partner is mentioned; also called cyclin-dependent kinase 4; source: bacterial-purified recombinant; GST-fusion proteins purified on Pierce Glutathione agarose
For the molecule B1, the binding result is reported as “binds”.
